Bounds are passed on as bounds.

The results in this text go back to patent publication US9523084B2, “Phosphodeoxyribosyl transferase mutant enzymes and uses thereof” (Centre National De La Recherche Scientifique, priority 2012, dated 2016).

Substrate in data set [1]: Nc1ccn([C@H]2C[C@H](O)[C@@H](COP(=O)(O)O)O2)c(=O)n1
The experiment in a line: Kinetic parameters of PDT variants, dCMP + A ⇄ dAMP + C. Conditions: adenine as acceptor, fixed, 37.0 °C. The class given is biochemical, Lactobacillus leichmannii. As to the method: (§1) The standard assay (“first protocol for enzyme assay”) for the different NDTs consisted of 5-15 μg of NDT in 50 mM MES buffer pH 6.0, dNxP (dNMP, or dNDP or dNTP) 3 mM and a base 1 mM in a total volume of 50 μL. Assays were incubated for 60 min at 37° C. The products of the reactions were analyzed each 7 min by Rapid resolution high performance liquid chromatography using a reverse-phase column (ZORBAX Eclipse XDB-C18 2.1*50 mm 1.8 μM) with a flow rate of 0.25 ml/min and a linear gradient of 1-12% CH3CN (2-25% CH3CN or 1-90% CH3CN) in 20 mM triethylammonium acetate, pH 7.5, buffer for 7 min. The low resolution mass spectra of the newly synthesized deoxyribonucleotides were obtained on an Agilent 1200 series LC/MS 6120 quadrupole system using an atmospheric electrospray ionization system.
This hypothesis was confirmed by monitoring the specific activity, in the presence of dCDP or dCTP as donor and adenine as acceptor (see table 2 above). The kinetic parameters were determined for the best variants with dCMP, dCDP and dCTP as substrates, at a concentration of A being fixed (see table 3 below).

The nature of data set [2]: Catalytic activity of PDTT2 to PDTT7, dATP formed (HPLC). The class given is biochemical. The note with it: dCTP + A ⇄ dATP + C; 2 mM dCTP, 1 mM Adenine, 37° C., MES 50 mM pH6.0. As for the experimental part: In specific cases, an alternative protocol was used to perform the enzyme assay. In this second protocol, the dNxP (dNMP, or dNDP or dNTP) concentration was of only 2 mM, instead of 3 mM. All of the other conditions were identical to those of the first protocol.
The catalytic activity of the mutant enzymes PDTT2, PDTT3, PDTT3b, PDTT4, PDTT5, PDTT6, PDTT7 has been compared. Briefly, a sufficient amount of enzyme mutant necessary to obtain a linear reaction over a period of one hour at 37° C. has been mixed in 2 mM dCTP and 1 mM Adenine in a final volume of 50 μL of MES buffer 50 mM pH6.0. Assays were incubated for 60 min at 37° C. The products of the reactions were analyzed each 7 min by Rapid resolution high performance liquid chromatography using a reverse-phase column (ZORBAX Eclipse XDB-C18 2.1*50 mm […]) with a flow rate of 0.25 ml/min and a linear gradient of 1-12% CH3CN (2-25% CH3CN or 1-90% CH3CN) in 20 mM triethylammonium acetate, pH 7.5, buffer for 7 min.

Data set [3] is described as follows: Standard enzyme assay (HPLC): specific activities of PDT variants with natural purines and pyrimidines. Conditions: donor 3 mM, acceptor 1 mM. The class given is biochemical. As to the method: as §1
Unless specifically mentioned, the results presented hereafter have been obtained by using the first protocol for performing the enzyme assay.

Data set [4] is described as follows: In vitro synthesis of deoxynucleotide analogues: specific activities. It counts as biochemical. As to the method:
as §1
The donor concentration was 3 mM and the acceptor 1 mM except for dCTP 2 mM 5-BrU 1 mM and dAMP 2 mM 5-FU 1 mM. Activities are expressed in nanomoles of deoxynucleotides synthesized per min per mg of protein.

B1: Lactobacillus leichmannii nucleoside deoxyribosyltransferase (NDT, SEQ ID NO:1) variant PDTM3, R13 S92 (F13R/D92S), SEQ ID NO:5 (Lactobacillus leichmannii; … (protein)
chain: MPKKTIYFGAGWRTDRQNKAYKEAMEALKENPTIDLENSYVPLDNQYKGIRVDEHPEYLHDKVWATATYNNDLNGIKTNDIMLGVYIPDEESVGLGMELGYALSQGKYVLLVIPDEDYGKPINLMSWGVSDNVIKMSQLKDFNFNKPRFDFYEGAVY
notes: homohexamer (108 kDa)
For B1, in data set [1] (other: PDTM3), the Km was determined as 22 mM and the kcat turned out to be 0.3 s⁻¹.

B2: Lactobacillus leichmannii nucleoside deoxyribosyltransferase (NDT, SEQ ID NO:1) variant PDTM5, Q13 S92 S123 (F13Q/D92S/N123S), SEQ ID NO:7 (Lactobacillus … (protein)
chain: MPKKTIYFGAGWQTDRQNKAYKEAMEALKENPTIDLENSYVPLDNQYKGIRVDEHPEYLHDKVWATATYNNDLNGIKTNDIMLGVYIPDEESVGLGMELGYALSQGKYVLLVIPDEDYGKPISLMSWGVSDNVIKMSQLKDFNFNKPRFDFYEGAVY
notes: homohexamer (108 kDa)
For B2, in data set [1] (other: PDTM5), the Km came to 12 mM and the catalytic constant (kcat) stood at 1.99 s⁻¹.

B3: PDTT4: PDTT2 mutant with Serine at position 93 and Lysine at position 157, SEQ ID NO:40 (protein)
chain: MPKKTIYFGAGWRTDRQNKAYKEAMEALKENPTIDLENSYVPLDNQYKGIRVDEHPEYLHDKVWATATYNNDLNGIKTNDIMLGVYIPDEQGSGLGMELGYALSQGKYVLLVIPDEDYGKPISLMSWGVSDNVIKMSQLKDFNFNKPRFDFYEGAVK
modifications: amino acid sequence of PDTT4 (G92/S123/R13/S93/K157/Q91)
Consider B3, for which the “Catalytic activity (nmol of dATP formed/min/mg of enzyme protein)” value in data set [2] is on record as 10.4 nmol of dATP formed/min/mg of enzyme protein.

B4: Lactobacillus leichmannii nucleoside deoxyribosyltransferase (NDT, SEQ ID NO:1) variant PDTM4, R13 S92 S123 (F13R/D92S/N123S), SEQ ID NO:6 (Lactobacillus … (protein)
chain: MPKKTIYFGAGWRTDRQNKAYKEAMEALKENPTIDLENSYVPLDNQYKGIRVDEHPEYLHDKVWATATYNNDLNGIKTNDIMLGVYIPDEESVGLGMELGYALSQGKYVLLVIPDEDYGKPISLMSWGVSDNVIKMSQLKDFNFNKPRFDFYEGAVY
notes: homohexamer (108 kDa)
With B4, in data set [1] (other: PDTM4), the Km is 11 mM and the catalytic constant (kcat) was found to be 2.1 s⁻¹.

B5: PDTM5: NDT mutant Q13 S92 S123, SEQ ID NO:7 (protein)
chain: MPKKTIYFGAGWQTDRQNKAYKEAMEALKENPTIDLENSYVPLDNQYKGIRVDEHPEYLHDKVWATATYNNDLNGIKTNDIMLGVYIPDEESVGLGMELGYALSQGKYVLLVIPDEDYGKPISLMSWGVSDNVIKMSQLKDFNFNKPRFDFYEGAVY
modifications: PDTM5 enzyme mutant
With B5, the Specific activity in data set [3] (dAMP + C ⇄ dCMP + A) is recorded as 206 nanomoles of deoxynucleotides synthesized per min per mg of protein; in data set [3] (dAMP + Hx ⇄ dIMP + A) it was <0.1 nanomoles of deoxynucleotides synthesized per min per mg of protein; in data set [3] (dCMP + A ⇄ dAMP + C) it was 296 nanomoles of deoxynucleotides synthesized per min per mg of protein; in data set [3] (dCMP + T ⇄ dTMP + C), 1.7 nanomoles of deoxynucleotides synthesized per min per mg of protein; in data set [3] (dGMP + A ⇄ dAMP + G), 81 nanomoles of deoxynucleotides synthesized per min per mg of protein; in data set [4] (dAMP + 5-FU → A + 5-F-dUMP, dAMP 2 mM 5-FU 1 mM) it was 47 nanomoles of deoxynucleotides synthesized per min per mg of protein. Further, the Specific activity in data set [4] (dCMP + 2,6-D → C + 2,6-DMP, donor 3 mM, acceptor 1 mM) is reported as 78 nanomoles of deoxynucleotides synthesized per min per mg of protein; in data set [4] (dCMP + 2,6-chloropurine → C + 2,6-dichloropurine 2′-deoxyribose 5′-monophosphate, donor 3 mM, acceptor 1 mM), 19 nanomoles of deoxynucleotides synthesized per min per mg of protein; in data set [4] (dCMP + 5-BrU → C + 5-Br-dUMP, donor 3 mM, acceptor 1 mM) it was 26 nanomoles of deoxynucleotides synthesized per min per mg of protein; in data set [4] (dCMP + 6-chloropurine → C + 6-chloropurine 2′-deoxyribose 5′-monophosphate, donor 3 mM, acceptor 1 mM), 15 nanomoles of deoxynucleotides synthesized per min per mg of protein.

B6: Lactobacillus leichmannii nucleoside deoxyribosyltransferase (NDT, SEQ ID NO:1) variant PDTT0, R13 G92 T93 S123 (F13R/D92G/V93T/N123S), SEQ ID NO:8 … (protein)
chain: MPKKTIYFGAGWRTDRQNKAYKEAMEALKENPTIDLENSYVPLDNQYKGIRVDEHPEYLHDKVWATATYNNDLNGIKTNDIMLGVYIPDEEGTGLGMELGYALSQGKYVLLVIPDEDYGKPISLMSWGVSDNVIKMSQLKDFNFNKPRFDFYEGAVY
notes: homohexamer (108 kDa)
As to B6, in data set [1] (other: PDTT0), the Km came to 9.2 mM and the turnover number (kcat) came out at 0.45 s⁻¹.

B7: PDTT5: PDTT3 mutant with Arginine at position 157, SEQ ID NO:41 (protein)
chain: MPKKTIYFGAGWRTDRQNKAYKEAMEALKENPTIDLENSYVPLDNQYKGIRVDEHPEYLHDKVWATATYNNDLNGIKTNDIMLGVYIPDEQGPGLGMELGYALSQGKYVLLVIPDEDYGKPISLMSWGVSDNVIKMSQLKDFNFNKPRFDFYEGAVR
modifications: amino acid sequence of PDTT5 (G92/S123/R13/P93/R157/Q91)
As to B7, in data set [2], the “Catalytic activity (nmol of dATP formed/min/mg of enzyme protein)” value is recorded as 27 nmol of dATP formed/min/mg of enzyme protein.

B8: PDTT3: PDTT2 mutant with Proline at position 93 and Lysine at position 157, SEQ ID NO:38 (protein)
chain: MPKKTIYFGAGWRTDRQNKAYKEAMEALKENPTIDLENSYVPLDNQYKGIRVDEHPEYLHDKVWATATYNNDLNGIKTNDIMLGVYIPDEQGPGLGMELGYALSQGKYVLLVIPDEDYGKPISLMSWGVSDNVIKMSQLKDFNFNKPRFDFYEGAVK
modifications: amino acid sequence of PDTT3 (G92/S123/R13/P93/K157/Q91)
Take B8: the “Catalytic activity (nmol of dATP formed/min/mg of enzyme protein)” value in data set [2] is recorded as 2.7 nmol of dATP formed/min/mg of enzyme protein.

B9: PDTT3b: PDTT2 mutant with Glycine (G) at position 93 and Lysine at position 157, SEQ ID NO:39 (protein)
chain: MPKKTIYFGAGWRTDRQNKAYKEAMEALKENPTIDLENSYVPLDNQYKGIRVDEHPEYLHDKVWATATYNNDLNGIKTNDIMLGVYIPDEQGGGLGMELGYALSQGKYVLLVIPDEDYGKPISLMSWGVSDNVIKMSQLKDFNFNKPRFDFYEGAVK
modifications: amino acid sequence of PDTT3b (G92/S123/R13/G93/K157/Q91)
B9: the “Catalytic activity (nmol of dATP formed/min/mg of enzyme protein)” value in data set [2] is reported as 6.5 nmol of dATP formed/min/mg of enzyme protein.

Broadly, the Km is the concentration of substrate that gives half-maximal velocity. A word on the kcat: it is the maximal rate divided by the concentration of active sites.
